Measurements: patent US20250136710A1 (COMPUGEN, published 2025)

T1: PVRL2 (human, UniProt Q92692 32-360, limits assumed)
T1 construct: also called PVLR2; CD112
T1 sequence (looked up): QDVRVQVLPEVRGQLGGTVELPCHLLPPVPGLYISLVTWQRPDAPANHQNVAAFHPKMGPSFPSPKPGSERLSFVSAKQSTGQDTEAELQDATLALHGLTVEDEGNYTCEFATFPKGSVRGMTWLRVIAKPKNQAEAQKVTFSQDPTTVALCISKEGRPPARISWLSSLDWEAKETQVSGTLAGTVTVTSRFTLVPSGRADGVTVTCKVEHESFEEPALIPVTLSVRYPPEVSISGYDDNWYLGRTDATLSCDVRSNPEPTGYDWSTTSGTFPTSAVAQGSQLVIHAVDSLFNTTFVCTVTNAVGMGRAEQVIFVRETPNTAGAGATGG

T2: PVR (UniProt P15151 21-343, limits assumed)
T2 construct: also called poliovirus receptor; CD155
T2 sequence (looked up): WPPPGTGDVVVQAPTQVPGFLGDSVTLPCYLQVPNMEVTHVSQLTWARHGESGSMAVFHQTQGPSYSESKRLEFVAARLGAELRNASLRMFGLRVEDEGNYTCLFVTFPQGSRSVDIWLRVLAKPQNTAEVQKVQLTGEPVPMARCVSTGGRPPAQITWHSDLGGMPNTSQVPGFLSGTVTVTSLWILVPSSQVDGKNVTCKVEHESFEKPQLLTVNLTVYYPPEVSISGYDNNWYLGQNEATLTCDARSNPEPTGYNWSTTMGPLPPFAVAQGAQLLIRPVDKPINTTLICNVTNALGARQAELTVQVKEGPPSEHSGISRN

B1: PVRIG (receptor, human, UniProt Q6DKI7 41-171, looked up)
chain: TPEVWVQVRMEATELSSFTIRCGFLGSGSISLVTVSWGGPNGAGGTTLAVLHPERGIRQWAPARQARWETQSSISLILEGSGASSPCANTTFCCKFASFPEGSWEACGSLPPSSDPGLSAPPTPAPILRAD
notes: also called CD112R; Human Poliovirus Receptor Related Immunoglobulin Domain Containing Protein
B2: TIGIT (receptor, human, UniProt Q495A1 22-141, looked up)
chain: MMTGTIETTGNISAEKGGSIILQCHLSSTTAQVTQVNWEQQDQLLAICNADLGWHISPSFKDRVAPGPGLGLTLQSLTVNDTGEYFCIYHTYPDGTYTGRIFLEVLESSVAEHGARFQIP
notes: also called human TIGIT

What was measured:
[1] = molecular target: T1, PVRL2; assay: not described at this place
[2] = molecular target: T2, PVR; assay: not described at this place

Binder | binding result [1] | binding result [2]
B1 | binds | –
B2 | – | binds
